Measurements from patent US11390660B2, “Uterine cancer treatments” (Immatics Biotechnologies GmbH, priority 2016, dated 2022).

Test system: CD8+ T cells
Assay: In vitro T-cell priming assay with aAPCs loaded with peptide/MHC complexes and anti-CD28 antibody, pMHC multimer readout
Assay type: cell-based, human
Details: in vitro immunogenicity, HLA-A*02 restricted peptides, positive wells among evaluable (Table 10B)
From the text: In order to obtain information regarding the immunogenicity of the TUMAPs of the present invention, the inventors performed investigations using an in vitro T-cell priming assay based on repeated stimulations of CD8+ T cells with artificial antigen presenting cells (aAPCs) loaded with peptide/MHC complexes and anti-CD28 antibody.
In order to perform in vitro stimulations by artificial antigen presenting cells loaded with peptide-MHC complex (pMHC) and anti-CD28 antibody, the inventors first isolated CD8+ T cells from fresh HLA-A*02 leukapheresis products via positive selection using CD8 microbeads (Miltenyi Biotec, Bergisch-Gladbach, Germany) of healthy donors obtained from the University clinics Mannheim, Germany, after informed consent.
PBMCs and isolated CD8+ lymphocytes were incubated in T-cell medium (TCM) until use consisting of RPMI-Glutamax (Invitrogen, Karlsruhe, Germany) supplemented with 10% heat inactivated human AB serum (PAN-Biotech, Aidenbach, Germany), 100 U/ml Penicillin/100 μg/ml Streptomycin (Cambrex, Cologne, Germany), 1 mM sodium pyruvate (CC Pro, Oberdorla, Germany), 20 μg/ml Gentamycin (Cambrex). 2.5 ng/ml IL-7 (PromoCell, Heidelberg, Germany) and 10 U/ml IL-2 (Novartis Pharma, Nürnberg, Germany) were also added to the TCM at this step.
Generation of pMHC/anti-CD28 coated beads, T-cell stimulations and readout was performed in a highly defined in vitro system using four different pMHC molecules per stimulation condition and 8 different pMHC molecules per readout condition.
The purified co-stimulatory mouse IgG2a anti human CD28 Ab 9.3 (Jung et al., 1987) was chemically biotinylated using Sulfo-N-hydroxysuccinimidobiotin as recommended by the manufacturer (Perbio, Bonn, Germany). Beads used were 5.6 μm diameter streptavidin coated polystyrene particles (Bangs Laboratories, Illinois, USA).
800.000 beads/200 μI were coated in 96-well plates in the presence of 4×12.5 ng different biotin-pMHC, washed and 600 ng biotin anti-CD28 were added subsequently in a volume of 200 μI. Stimulations were initiated in 96-well plates by co-incubating 1×10^6 CD8+ T cells with 2×10^5 washed coated beads in 200 μI TCM supplemented with 5 ng/ml IL-12 (PromoCell) for 3 days at 37° C. Half of the medium was then exchanged by fresh TCM supplemented with 80 U/ml IL-2 and incubating was continued for 4 days at 37° C. This stimulation cycle was performed for a total of three times. For the pMHC multimer readout using 8 different pMHC molecules per condition, a two-dimensional combinatorial coding approach was used as previously described (Andersen et al., 2012) with minor modifications encompassing coupling to 5 different fluorochromes. Finally, multimeric analyses were performed by staining the cells with Live/dead near IR dye (Invitrogen, Karlsruhe, Germany), CD8-FITC antibody clone SK1 (BD, Heidelberg, Germany) and fluorescent pMHC multimers. For analysis, a BD LSRII SORP cytometer equipped with appropriate lasers and filters was used. Peptide specific cells were calculated as percentage of total CD8+ cells. Evaluation of multimeric analysis was done using the FlowJo software (Tree Star, Oregon, USA). In vitro priming of specific multimer+ CD8+ lymphocytes was detected by comparing to negative control stimulations.

Row | Substance | Wells positive [%]
1 | 1 (KLLDNLHDL; listed as Homo sapiens) [compound 1] | + (<20% = +)
2 | 2 (VLLDIFTGV; listed as Homo sapiens) [compound 2] | +++ (50%-69% = +++)
3 | 3 (GLDGATYTV; listed as Homo sapiens) [compound 3] | ++++ (> = 70% = ++++)
4 | 6 (SLLSELVEA; listed as Homo sapiens) [compound 6] | + (<20% = +)

Same assay, conditions: in vitro immunogenicity, percentage of positive wells, healthy HLA-A*02 donors (Table 10A)

Row | Substance | wells
5 | 56 (LLLEILHEI; listed as Homo sapiens) [compound 56] | + (<20% = +)
6 | 57 (ALADLTGTVV; listed as Homo sapiens) [compound 57] | + (<20% = +)
7 | 58 (GVLENIFGV; listed as Homo sapiens) [compound 58] | + (<20% = +)
8 | 59 (QLLAGVFLA; listed as Homo sapiens) [compound 59] | + (<20% = +)
9 | 62 (SLWGGDVVL; listed as Homo sapiens) [compound 62] | ++ (20%-49% = ++)
10 | 64 (ALYDSVILL; listed as Homo sapiens) [compound 64] | + (<20% = +)
11 | 69 (VLTEFTREV; listed as Homo sapiens) [compound 69] | + (<20% = +)

Target: HLA-A*02:01 (Homo sapiens, UniProt P04439, D140Y/D185E/D98H/E176V/E277Q/G131W/G231S/I119V/I121R/I166T/I218V/L300P/L318F/N151K/N90K/P208A/P217A/Q86G/Q94H/R138H/R169H/T345S)
Assay: MHC binding assay: UV-ligand exchange with β2m ELISA
Details: peptide exchange yield, binding to HLA-A*02:01
From the text: Candidate peptides for T cell based therapies according to the present invention were further tested for their MHC binding capacity (affinity). The individual peptide-MHC complexes were produced by UV-ligand exchange, where a UV-sensitive peptide is cleaved upon UV-irradiation, and exchanged with the peptide of interest as analyzed. Only peptide candidates that can effectively bind and stabilize the peptide-receptive MHC molecules prevent dissociation of the MHC complexes. To determine the yield of the exchange reaction, an ELISA was performed based on the detection of the light chain (β2m) of stabilized MHC complexes. The assay was performed as generally described in Rodenko et al. (Rodenko et al., 2006).
96 well MAXISorp plates (NUNC) were coated over night with 2 ug/ml streptavidin in PBS at room temperature, washed 4× and blocked for 1 h at 37° C. in 2% BSA containing blocking buffer. Refolded HLA-A*02:01/MLA-001 monomers served as standards, covering the range of 15-500 ng/ml. Peptide-MHC monomers of the UV-exchange reaction were diluted 100 fold in blocking buffer. Samples were incubated for 1 h at 37° C., washed four times, incubated with 2 ug/ml HRP conjugated anti-β2m for 1 h at 37° C., washed again and detected with TMB solution that is stopped with […]. Absorption was measured at 450 nm. Candidate peptides that show a high exchange yield (preferably higher than 50%, most preferred higher than 75%) are generally preferred for a generation and production of antibodies or fragments thereof, and/or T cell receptors or fragments thereof, as they show sufficient avidity to the MHC molecules and prevent dissociation of the MHC complexes.

Row | Substance | Peptide exchange
12 | 1 (KLLDNLHDL; listed as Homo sapiens) [compound 1] | ++++ (> 75% = ++++)
13 | 2 (VLLDIFTGV; listed as Homo sapiens) [compound 2] | ++++ (> 75% = ++++)
14 | 3 (GLDGATYTV; listed as Homo sapiens) [compound 3] | +++ (>50 = +++)
15 | 4 (RLDIQGTGQLL; listed as Homo sapiens) [compound 4] | +++ (>50 = +++)
16 | 5 (SLFDEVRQI; listed as Homo sapiens) [compound 5] | ++++ (> 75% = ++++)
17 | 6 (SLLSELVEA; listed as Homo sapiens) [compound 6] | ++++ (> 75% = ++++)
18 | 8 (SVMELLQGV; listed as Homo sapiens) [compound 8] | ++++ (> 75% = ++++)
19 | 11 (ALDPIIHGL; listed as Homo sapiens) [compound 11] | ++++ (> 75% = ++++)
20 | 12 (ALAPSEGVQAA; listed as Homo sapiens) [compound 12] | ++++ (> 75% = ++++)
21 | 13 (ALQNKVVAL; listed as Homo sapiens) [compound 13] | +++ (>50 = +++)
22 | 15 (GLLSVELRV; listed as Homo sapiens) [compound 15] | ++++ (> 75% = ++++)
23 | 16 (KLNSSIQYV; listed as Homo sapiens) [compound 16] | +++ (>50 = +++)
24 | 17 (KLWEESTAQV; listed as Homo sapiens) [compound 17] | +++ (>50 = +++)
25 | 19 (YLETMNITL; listed as Homo sapiens) [compound 19] | +++ (>50 = +++)
26 | 21 (VLGPEGQLV; listed as Homo sapiens) [compound 21] | +++ (>50 = +++)
27 | 22 (VLVSSVLGV; listed as Homo sapiens) [compound 22] | +++ (>50 = +++)
28 | 24 (ILDAQTAFV; listed as Homo sapiens) [compound 24] | +++ (>50 = +++)
29 | 25 (ILLELFTHV; listed as Homo sapiens) [compound 25] | ++++ (> 75% = ++++)
30 | 26 (SVLAGVVGV; listed as Homo sapiens) [compound 26] | ++++ (> 75% = ++++)
31 | 27 (VLNPETTVV; listed as Homo sapiens) [compound 27] | +++ (>50 = +++)
32 | 28 (GLDEAIRKV; listed as Homo sapiens) [compound 28] | +++ (>50 = +++)
33 | 29 (IGIGPVLNI; listed as Homo sapiens) [compound 29] | + (>10% = +)

Other lines, results leading:

Row | Peptide exchange | Substance
34 | +++ (>50 = +++) | 30 (TLLDRVAVI; listed as Homo sapiens) [compound 30]
35 | +++ (>50 = +++) | 31 (ALLTAVTNV; listed as Homo sapiens) [compound 31]
36 | +++ (>50 = +++) | 32 (GLIENTYQL; listed as Homo sapiens) [compound 32]
37 | ++ (>20% = ++) | 33 (SMTTNLDLKV; listed as Homo sapiens) [compound 33]
38 | ++++ (> 75% = ++++) | 34 (AIAGRLLGV; listed as Homo sapiens) [compound 34]
39 | +++ (>50 = +++) | 35 (TLLPTLYEI; listed as Homo sapiens) [compound 35]
40 | +++ (>50 = +++) | 36 (SLLSDIIAL; listed as Homo sapiens) [compound 36]
41 | +++ (>50 = +++) | 37 (VLLATVTEL; listed as Homo sapiens) [compound 37]
42 | +++ (>50 = +++) | 38 (RILDIDIPLSV; listed as Homo sapiens) [compound 38]
43 | +++ (>50 = +++) | 39 (ALDGKIYEL; listed as Homo sapiens) [compound 39]
44 | ++++ (> 75% = ++++) | 40 (GLLGGVIMMV; listed as Homo sapiens) [compound 40]
45 | ++++ (> 75% = ++++) | 41 (YIDDIFSGV; listed as Homo sapiens) [compound 41]
46 | ++++ (> 75% = ++++) | 42 (FLSGYYVTL; listed as Homo sapiens) [compound 42]
47 | +++ (>50 = +++) | 43 (VIANEIEKV; listed as Homo sapiens) [compound 43]
48 | ++++ (> 75% = ++++) | 44 (FLNGLEILL; listed as Homo sapiens) [compound 44]
49 | ++ (>20% = ++) | 45 (VLLHVSVLL; listed as Homo sapiens) [compound 45]
50 | +++ (>50 = +++) | 46 (NMDDVIYYV; listed as Homo sapiens) [compound 46]
51 | +++ (>50 = +++) | 47 (GLVEQLYDL; listed as Homo sapiens) [compound 47]
52 | +++ (>50 = +++) | 48 (ILAETQPEL; listed as Homo sapiens) [compound 48]
53 | ++++ (> 75% = ++++) | 49 (ALLELLHEL; listed as Homo sapiens) [compound 49]
54 | ++++ (> 75% = ++++) | 50 (TLSTVIATV; listed as Homo sapiens) [compound 50]
55 | +++ (>50 = +++) | 51 (TVPPVFVSV; listed as Homo sapiens) [compound 51]
56 | +++ (>50 = +++) | 52 (ALISEKLETL; listed as Homo sapiens) [compound 52]
57 | ++++ (> 75% = ++++) | 53 (VMHDSSFSV; listed as Homo sapiens) [compound 53]
58 | +++ (>50 = +++) | 54 (TLSDVVVGL; listed as Homo sapiens) [compound 54]
